For one substance, OD450 absorbance results are on record in US20240000930A1.

Assay [1] has as its target carboxymethyl lysine conjugated to keyhole limpet hemocyanin (CML-KLH). The assay is described as follows: direct binding ELISA, CML-KLH coat 1 ug/mL, antibody at 5.56 ug/mL.
Assay [2] shares this target. The assay is described as follows: direct binding ELISA, CML-KLH coat 1 ug/mL, antibody at 50 ug/mL.
The target is the same in assay [3]. The assay is described as follows: direct binding ELISA, CML-KLH coat 1 ug/mL, antibody at 0.07 ug/mL.
The target is the same in assay [4]. Description: direct binding ELISA, CML-KLH coat 1 ug/mL, antibody at 16.67 ug/mL.
Assay [5] shares this target. Description: direct binding ELISA, CML-KLH coat 1 ug/mL, antibody at 0.21 ug/mL.
Assay [6] has the same target. Description: direct binding ELISA, CML-KLH coat 1 ug/mL, antibody at 1.85 ug/mL.
Assay [7] shares this target. Description: direct binding ELISA, CML-KLH coat 1 ug/mL, antibody at 0.62 ug/mL.

As to “anti-carboxymethyl lysine (CML) antibody (R&D Systems, MAB3247)”, the OD450 absorbance in assay [1] was determined as 0.165 OD450; in assay [2] it was 0.462 OD450; in assay [3] it was 0.086 OD450; in assay [4], 0.312 OD450; in assay [5] it was 0.075 OD450; in assay [6] it was 0.092 OD450. For the same substance, the OD450 absorbance in assay [7] amounted to 0.083 OD450.
